Legend:
Type in all cases: cell-based
[1] = tested on: mouse tracheal epithelial (MTE) cells; test: Total GSH measurement (DTNB assay) in MTE cells; settings: direct administration of recombinant protein to MTE cells
Procedure: It has been previously shown that the pleotropic cytokine IL1B augments glycolysis in lung epithelial cells, and that interleukin 1B (IL1B) is linked to oxidative stress. The pentose phosphate pathway, an offshoot of glycolysis, regulates the redox environment by providing nicotinamide adenine dinucleotide phosphate (NADPH) reducing equivalents necessary for glutathione (GSH) homeostasis. The effects of GSH in response to IL1B were examined. Briefly, GSH was measured using a 5,5′-dithio-bis (2-nitrobenzoic acid) (DTNB) assay in both control and IL1B-stimulated mouse tracheal epithelial cells. […] Statistics on the left panel represent the total GSH levels, without differentiating between labeled and unlabeled portions of GSH (P-value*<0.05, ****<0.0001).
A regulator of GSH homeostasis is the transporter system xC-, which exports glutamate and concomitantly imports cystine in a 1:1 ratio. Once inside the cells, cystine is reduced to two cysteines, the latter being the rate limiting amino acid required for GSH synthesis. These relationships were examined further. […] To address whether IL1B-induced increases in GSH are system xC- dependent, two system xC- inhibitors, erastin (Er) and sulfasalazine (SAS) were used. Cells were pretreated for one hour, followed by IL1B treatment for 24 hours. Then, GSH levels were measured in cells exposed to increasing doses of Er or SAS (FIG. 2G). Extracellular glutamate levels in cell culture supernatant of cells pretreated with 0.5 micromolar Er (left) or 100 micromolar SAS (right) for 1 hour before IL1B stimulation were also measured (FIG. 2H). […] System xC- inhibition is known to induce ferroptosis, an iron-dependent mode of cell death characterized by increased lipid peroxidation. However, no changes in cell viability using erastin (5 micromolar) or sulfasalazine (500 micromolar) were detected (FIG. 2I; P-value*<0.05, ***<0.001, ****<0.0001).
Primary mouse tracheal epithelial (MTE) cells were isolated from C57BL/6NJ wild-type or C57BL6/NJ mice lacking Glrx1 gene and cultured. Cells were grown on collagen coated plastic plates or transwell inserts with media change every 2 days until confluency. For interleukin 1B (IL1B) treatment: cells were incubated in plain Dulbecco's Modified Eagle Medium (DMEM): F12 media containing 6 mM glucose and 2 mM glutamine overnight followed by stimulation with 10 ng/ml IL1B or 0.1% bovine serum albumin (BSA) in phosphate buffered saline (PBS) (vehicle control) for 24 hours. Treatment with crastin, sulfasalazine or BSO occurred 1 hour before IL1B stimulation. Media and cells were collected for further analysis. For growing H522 and OTUB1-CRISPR-H522 cells: Roswell Park Memorial Institute (RPMI) media supplemented with 10% fetal bovine serum (FBS) and 1% pen/strep was used to grow the cells. Plasmid over-expression and OTUB1 knock-down experiments were done when cells were 60-70% confluent.
Cell lysates were prepared in 100 mM potassium phosphate buffer containing 0.6% sulfosalicylic acid, 1 mM ethylenediaminetetraacetic acid (EDTA) and 0.01% triton-x-100. To measure total glutathione (GSH), equal amounts of proteins were incubated with 3 micromolar 5,5′-dithio-bis (2-nitrobenzoic acid) (DTNB) reagent and 2.25 microgram/ml glutathione reductase followed by the addition of 240 micromolar Nicotinamide adenine dinucleotide phosphate (NADPH). Kinetic absorbance was measured every minute at 412 nm for 20 minutes. […]

[2] = tested on: mouse tracheal epithelial (MTE) cells; test: Total PSSG in MTE cells treated with recombinant GLRX; settings: direct administration of recombinant protein to MTE cells
Procedure: OTUB1 was one of the PSSG targets detected in IL1B-stimulated epithelial cells raising the possibility that S-glutathionylation of OTUB1 affects the stability of SLC7A11. To investigate this, immunoprecipitation of GSH followed by Western Blotting of OTUB1 in MTE cells treated with vehicle or IL1B was performed. Dithiothreitol (DTT) was incubated with cell lysates prior to immunoprecipitation as a negative control. OTUB1 levels from whole cell lysates were used as the input control. Increases in OTUB1 S-glutathionylation (OTUB1-SSG) in response to IL1B were observed, with further increases occurring in cells lacking Glrx (FIG. 4G), consistent with the role of GLRX as a deglutathionylating enzyme. Western blots were performed using cells treated with the WT- or C23S-mutant GLRX recombinant protein to examine the presence of glutaredoxin (FIG. 4H) and total PSSG (FIG. 4I) (P-value*<0.05, **<0.01, ***<0.001, ****<0.0001). […] Glutathione was evaluated in MTE cells treated with recombinant WT- or C23S-mutant GLRX (FIG. 4J) and glutamate in cell culture supernatant of MTE cells treated with WT or the C23S mutant GLRX was also evaluated (FIG. 4K). […]
Cell lysates were prepared in 100 mM potassium phosphate buffer containing 0.6% sulfosalicylic acid, 1 mM ethylenediaminetetraacetic acid (EDTA) and 0.01% triton-x-100. […] Kinetic absorbance was measured every minute at 412 nm for 20 minutes. […]

[3] = tested on: H522 LUAD cells; test: GSH levels in H522 LUAD cells; settings: administration of GLRX to H522 LUAD cells
Procedure: Cell lysates were prepared in 100 mM potassium phosphate buffer containing 0.6% sulfosalicylic acid, 1 mM ethylenediaminetetraacetic acid (EDTA) and 0.01% triton-x-100. To measure total glutathione (GSH), equal amounts of proteins were incubated with 3 micromolar 5,5′-dithio-bis (2-nitrobenzoic acid) (DTNB) reagent and 2.25 microgram/ml glutathione reductase followed by the addition of 240 micromolar Nicotinamide adenine dinucleotide phosphate (NADPH). Kinetic absorbance was measured every minute at 412 nm for 20 minutes. For protein S-glutathionylation (PSSG) measurement, 400 micrograms of protein was acetone precipitated and washed thoroughly to remove any free GSH. Pellets were reconstituted in 100 mM potassium phosphate buffer with 1 mM EDTA. Samples were then incubated with 1 mM sodium borohydride (NaBH4) or water (negative control) for 1 hour at room temperature. 10% metaphosphoric acid was added to all the samples, including controls, and left on ice for 10 minutes. Samples were centrifuged at 1000×g for 15 minutes and 20 microliters were loaded in a 96 well plate to measure PSSG using, 5′-dithio-bis-(2-nitrobenzoic acid) (DTNB) recycling enzyme method as stated above.

[4] = tested on: SLC7A11; test: SLC7A11 levels in H522 LUAD cells; settings: administration of GLRX to H522 LUAD cells
Procedure: Bio-Rad DC protein estimation kit was used to determine protein concentration in cell lysates. Equal amounts of proteins were resolved using sodium dodecyl sulfate (SDS)-polyacrylamide gel electrophoresis and transferred to polyvinylidene difluoride (PVDF) membranes, blocked in 5% BSA and incubated with primary antibodies overnight. Membranes were subsequently incubated with peroxidase-conjugated secondary antibodies for one hour and then visualized using chemiluminescence.

B1: GLRX: recombinant wild-type glutaredoxin protein, deglutathionylating enzyme, administered directly to cells (protein, UniProt P35754 2-106, looked up)
Glutaredoxin-1: AQEFVNCKIQPGKVVVFIKPTCPYCRRAQEILSQLPIKQGLLEFVDITATNHTNEIQDYLQQLTGARTVPRVFIGKDCIGGCSDLVSLQQSGELLTRLKQIGALQ
decreased: GSH levels [1] | overall PSSG [2] | GSH levels [3] | SLC7A11 levels [4]

From patent US20260027190A1, “OVARIAN TUMOR DEUBIQUITINASE OXIDATION AND USES THEREOF” (The University of Vermont and State Agricultural College, priority 2022, published 2026)
